Data: publication PMC11035697, “Phosphorylation of the F-BAR protein Hof1 drives septin ring splitting in budding yeast” (Nature Communications, 2024)

B1: MBP-Hof1-BFP-6His (natural protein, S. cerevisiae, UniProt Q05080 1-669, looked up)
chain: MSYSYEACFWDPNDNGVNILLGHISQGIRSCDSMILFFKQRSELEKDYARRLGAITGKLDKDIGTNMDYGKLNETFNVVLSVEKARAQSHSKQSEILFRQIYTDTKAFAANLQARYTTLSGKIERLRMDKFNKKKGCEVLQKKLQDAQIRFRDLQLNENNMIGAKRVEHNKRELLKWESNSQEYKVQLDVLKQEYKASQKFWIHEWAQLSCELQEMENARISFLQSKLQQFATSSMETYILEQTKMDMLTNHLNSFTAADEISTFSKENGTGRLKHKTSKGDMNSSANWAQMSSISTTSKKTESYMDNIRKLSSQLKETENKRKLASIDKYEKPLPSPEVTMATQFRNSTPVIRNETKVVANPTLSLRSSPVQLQSNVDDSVLRQKPDKPRPIVGEEQLKPDEDSKNPDEKGLMVHKRNQSLSSPSESSSSNPTDFSHIKKRQSMESMTTSVSSMANSIDDSQRFAKSWNSSNRKRKSMSHLQVPSSASSRSDDGGRTPNSAHNLNEDDYNTRRDTSTSTILFKPPVAVRGTSRGHTHRQSMIMQDSSNPIEDALYEMERIQSSSKPGTKTGNIMDERGVVRDRGITVTLPIVTSEGFPVIEYAKAMYPLIGNEAPGLANFHKGDYLLITEIVNKDWYKGEVYDNDRIDRNHRIGLIPYNFIQLLHQGL
notes: F-BAR protein Hof1, S. cerevisiae, residues 1-669 (mTagBFP fragment cloned into pBG2163); BFP amplified from pHPOM1-mTagBFP2; also called Hof1 tagged with blue fluorescent protein; pSP1950; source: E. coli BL21 (DE3) Rosetta, purified (Ni-NTA, amylose); not shown: MBP, N-terminal, kept; mTagBFP, C-terminal, kept
B2: Cdc11-Cdc12-Cdc3-Cdc10-Cdc10-Cdc3-Cdc12-Cdc11 septin octamer (complex, S. cerevisiae)
chain 1: MSGIIDASSALRKRKHLKRGITFTVMIVGQSGSGRSTFINTLCGQQVVDTSTTILLPTDTSTEIDLQLREETVELEDDEGVKIQLNIIDTPGFGDSLDNSPSFEIISDYIRHQYDEILLEESRVRRNPRFKDGRVHCCLYLINPTGHGLKEIDVEFIRQLGSLVNIIPVISKSDSLTRDELKLNKKLIMEDIDRWNLPIYNFPFDEDEISDEDYETNMYLRTLLPFAIIGSNEVYEMGGDVGTIRGRKYPWGILDVEDSSISDFVILRNALLISHLHDLKNYTHEILYERYRTEALSGESVAAESIRPNLTKLNGSSSSSTTTRRNTNPFKQSNNINNDVLNPASDMHGQSTGENNETYMTREEQIRLEEERLKAFEERVQQELLLKRQELLQREKELREIEARLEKEAKIKQEE
chain 2: MSAATATAAPVPPPVGISNLPNQRYKIVNEEGGTFTVMLCGESGLGKTTFINTLFQTVLKRADGQQHRQEPIRKTVEIDITRALLEEKHFELRVNVIDTPGFGDNVNNNKAWQPLVDFIDDQHDSYMRQEQQPYRTKKFDLRVHAVLYFIRPTGHGLKPIDIETMKRLSTRANLIPVIAKADTLTAQELQQFKSRIRQVIEAQEIRIFTPPLDADSKEDAKSGSNPDSAAVEHARQLIEAMPFAIVGSEKKFDNGQGTQVVARKYPWGLVEIENDSHCDFRKLRALLLRTYLLDLISTTQEMHYETYRRLRLEGHENTGEGNEDFTLPAIAPARKLSHNPRYKEEENALKKYFTDQVKAEEQRFRQWEQNIVNERIRLNGDLEEIQGKVKKLEEQVKSLQVKKSHLK
chain 3: MSLKEEQVSIKQDPEQEERQHDQFNDVQIKQESQDHDGVDSQYTNGTQNDDSERFEAAESDVKVEPGLGMGITSSQSEKGQVLPDQPEIKFIRRQINGYVGFANLPKQWHRRSIKNGFSFNLLCVGPDGIGKTTLMKTLFNNDDIEANLVKDYEEELANDQEEEEGQGEGHENQSQEQRHKVKIKSYESVIEENGVKLNLNVIDTEGFGDFLNNDQKSWDPIIKEIDSRFDQYLDAENKINRHSINDKRIHACLYFIEPTGHYLKPLDLKFMQSVYEKCNLIPVIAKSDILTDEEILSFKKTIMNQLIQSNIELFKPPIYSNDDAENSHLSERLFSSLPYAVIGSNDIVENYSGNQVRGRSYPWGVIEVDNDNHSDFNLLKNLLIKQFMEELKERTSKILYENYRSSKLAKLGIKQDNSVFKEFDPISKQQEEKTLHEAKLAKLEIEMKTVFQQKVSEKEKKLQKSETELFARHKEMKEKLTKQLKALEDKKKQLELSINSASPNVNHSPVPTKKKGFLR
chain 4: MDPLSSVQPASYVGFDTITNQIEHRLLKKGFQFNIMVVGQSGLGKSTLINTLFASHLIDSATGDDISALPVTKTTEMKISTHTLVEDRVRLNINVIDTPGFGDFIDNSKAWEPIVKYIKEQHSQYLRKELTAQRERFITDTRVHAILYFLQPNGKELSRLDVEALKRLTEIANVIPVIGKSDTLTLDERTEFRELIQNEFEKYNFKIYPYDSEELTDEELELNRSVRSIIPFAVVGSENEIEINGETFRGRKTRWSAINVEDINQCDFVYLREFLIRTHLQDLIETTSYIHYEGFRARQLIALKENANSRSSAHMSSNAIQR
notes: septin Cdc11, yeast; septin Cdc12, yeast; septin Cdc3, yeast; septin Cdc10, yeast; also called Cdc11-capped septin octamers; recombinant septin octamers; source: E. coli BL21 (DE3) Rosetta, co-expressed from pFM453 and pFM455, purified (amylose, thrombin cleavage of MBP, Ni-NTA); not shown: MBP, N-terminal, cleaved; His6, N-terminal, kept; copies: 2 + 2 + 2 + 2

What was measured:
[1] = molecular target: T1, eGFP-tagged Cdc11-capped septin octamer (S. cerevisiae, UniProt P32458 1-415; P32468 1-407; P32457 1-520; P25342 1-322); assay: fluorescence microscopy of purified proteins (colocalisation on septin bundles); 1:1 mix of eGFP-tagged and untagged septin octamers (50 nM) on PI(4,5)P2-containing supported lipid bilayers in 20 mM Tris-Cl pH 8, 30 mM NaCl, 2 mM MgCl2, GTP; Hof1-BFP mixed 1:4 with untagged Hof1 added; spinning disk microscopy; settings: both partners purified
T1 construct: septin Cdc11, yeast; septin Cdc12, yeast; septin Cdc3, yeast; septin Cdc10, yeast; Always used as a 1:1 mix with the untagged octamer in the fluorescence experiments; also called eGFP-labelled septin octamers; GFP-tagged septin octamers; source: E. coli BL21 (DE3) Rosetta, co-expressed from pFM453 and pFM873, purified (amylose, thrombin cleavage of MBP, Ni-NTA); not shown: MBP, N-terminal, …

[2] = molecular target: the molecule itself; assay: negative-stain transmission electron microscopy; septin octamers diluted in low salt buffer (20 mM Tris-Cl pH 8, 30 mM NaCl, 2 mM MgCl2, 40 µM GTP), polymerised at least 30 min at 4 °C, 180 nM final; 1% uranyl acetate; octamers to filaments

Binder	binding result [1]	binding result [2]
B1	binds	–
B2	–	binds
